From the supplement of paper PMC9233669
Fewer inactive variants are shown than the library holds.

What was measured:
biotinyl-Val-oxazolone = assay: self-aminoacylation, catalytic enhancement (BVO) (fold over background); higher = more active; k-Seq, kA / k0A0; sequences stand for … in GGGAAUGGAUCCACAUCUACGAAUUC…UUCACUGCAGACUUGACGAAGCUG
How it was run: (§1)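 The uncatalyzed rate is the low-activity peak of a bimodal Gaussian fit, and catalytic enhancement is median kA divided by it. The kA values came from pseudo-first-order fits, with 1000 bootstraps, of per-sequence fraction reacted measured by streptavidin capture, triplicate qPCR and Illumina sequencing. Mutagenized RNA pools with a 21-nt variable region (0.43 μM) were reacted with each biotinyl-aminoacyl-oxazolone at 2–1250 μM in 50 μL HEPES/NaCl/KCl/MgCl2/CaCl2 buffer with 5% acetonitrile, pH 6.9–7.0, for 90 minutes at room temperature.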

biotinyl-Phe-oxazolone = assay: self-aminoacylation, catalytic enhancement (BFO) (fold over background); higher = more active; k-Seq, kA / k0A0; sequences stand for … in GGGAAUGGAUCCACAUCUACGAAUUC…UUCACUGCAGACUUGACGAAGCUG
How it was run: as §1

biotinyl-Ile-oxazolone = assay: self-aminoacylation, catalytic enhancement (BIO) (fold over background); higher = more active; k-Seq, kA / k0A0; sequences stand for … in GGGAAUGGAUCCACAUCUACGAAUUC…UUCACUGCAGACUUGACGAAGCUG
How it was run: as §1

biotinyl-Met-oxazolone = assay: self-aminoacylation, catalytic enhancement (BMO) (fold over background); higher = more active; k-Seq, kA / k0A0; sequences stand for … in GGGAAUGGAUCCACAUCUACGAAUUC…UUCACUGCAGACUUGACGAAGCUG
How it was run: as §1

biotinyl-Leu-oxazolone = assay: self-aminoacylation, catalytic enhancement (BLO) (fold over background); higher = more active; k-Seq, kA / k0A0; sequences stand for … in GGGAAUGGAUCCACAUCUACGAAUUC…UUCACUGCAGACUUGACGAAGCUG
How it was run: as §1

biotinyl-Trp-oxazolone = assay: self-aminoacylation, catalytic enhancement (BWO) (fold over background); higher = more active; k-Seq, kA / k0A0; sequences stand for … in GGGAAUGGAUCCACAUCUACGAAUUC…UUCACUGCAGACUUGACGAAGCUG
How it was run: as §1

| Sequence | self-aminoacylation (biotinyl-Val-oxazolone) | self-aminoacylation (biotinyl-Phe-oxazolone) | self-aminoacylation (biotinyl-Ile-oxazolone) | self-aminoacylation (biotinyl-Met-oxazolone) | self-aminoacylation (biotinyl-Leu-oxazolone) | self-aminoacylation (biotinyl-Trp-oxazolone) |
| --- | --- | --- | --- | --- | --- | --- |
| AAGUUUGCUAAUAUCCGCAAG [Fam3.1 aminoacylation ribozyme variant] | 0.886 | 1.18 | 0.911 | 0.725 | 0.845 | 0.739 |
| AAGUUUGCUAAUCGACGCAAG [Fam3.1 aminoacylation ribozyme variant] | 0.547 | 0.783 | 0.534 | 0.581 | 0.477 | 0.72 |
| AAGUUUGCUAAUCGUCACAAG [Fam3.1 aminoacylation ribozyme variant] | 0.978 | 1.3 | 0.966 | 0.828 | 0.881 | 0.982 |
| AAGUUUGCUAAUCGUCGCACG [Fam3.1 aminoacylation ribozyme variant] | 0.873 | 0.692 | 0.983 | 0.842 | 1.16 | 0.937 |
| AAGUUUGCUAAUCGUCGCAUG [Fam3.1 aminoacylation ribozyme variant] | 0.923 | 0.667 | 1.03 | 0.922 | 0.957 | 0.804 |
| AAGUUUGCUAAUCGUGGCAAG [Fam3.1 aminoacylation ribozyme variant] | 0.813 | 0.796 | 0.713 | 0.604 | 0.521 | 0.625 |
| AAGUUUGCUAAUCGUUGCAAG [Fam3.1 aminoacylation ribozyme variant] | 0.881 | 1.13 | 0.834 | 0.824 | 0.77 | 0.987 |
| AAGUUUGCUAAUGGUCGGAAG [Fam3.1 aminoacylation ribozyme variant] | 0.91 | 1.55 | 0.861 | 0.811 | 0.849 | 0.587 |
| AAGUUUGCUAAUUGGCGCAAG [Fam3.1 aminoacylation ribozyme variant] | 0.935 | 2.62 | 0.829 | 0.964 | 1.1 | 0.714 |
| AAGUUUGCUAAUUGUCCCAAG [Fam3.1 aminoacylation ribozyme variant] | 1.21 | 2.16 | 1.28 | 1.15 | 0.999 | 1.01 |
| AAGUUUGCUACUACUCGCAAG [Fam3.1 aminoacylation ribozyme variant] | 0.855 | 0.639 | 0.565 | 0.647 | 0.791 | 0.621 |
| AAGUUUGCUACUAGCCGCAAG [Fam3.1 aminoacylation ribozyme variant] | 0.638 | 1.27 | 0.746 | 0.786 | 0.51 | 0.996 |
| AAGUUUGCUACUAGUCGCAAC [Fam3.1 aminoacylation ribozyme variant] | 0.874 | 0.697 | 0.737 | 0.845 | 0.763 | 0.917 |
| AAGUUUGCUACUAGUCGCCAG [Fam3.1 aminoacylation ribozyme variant] | 1.1 | 0.986 | 1.27 | 1.26 | 0.749 | 1.91 |
| AAGUUUGCUACUAGUCUCAAG [Fam3.1 aminoacylation ribozyme variant] | 0.818 | 1.11 | 0.827 | 0.914 | 0.77 | 0.988 |
| AAGUUUGCUAGGAGUCGCAAG [Fam3.1 aminoacylation ribozyme variant] | 0.745 | 0.649 | 0.788 | 0.673 | 0.459 | 1.02 |
| AAGUUUGCUAGUACUCGCAAG [Fam3.1 aminoacylation ribozyme variant] | 0.878 | 0.836 | 0.894 | 0.907 | 0.773 | 0.574 |
| AAGUUUGCUAGUAGCCGCAAG [Fam3.1 aminoacylation ribozyme variant] | 0.797 | 1.34 | 1.16 | 0.787 | 1.09 | 0.972 |
| AAGUUUGCUAGUAGUCGCAUG [Fam3.1 aminoacylation ribozyme variant] | 0.873 | 0.822 | 0.903 | 0.737 | 0.808 | 1.4 |
| AAGUUUGCUAGUAGUCGCGAG [Fam3.1 aminoacylation ribozyme variant] | 1.54 | 3.65 | 1.27 | 1.08 | 1.25 | 2.01 |
| AAGUUUGCUAUCAGUCGCAAG [Fam3.1 aminoacylation ribozyme variant] | 0.931 | 1.37 | 0.794 | 0.865 | 0.733 | 0.615 |
| AAGUUUGCUAUUAGACGCAAG [Fam3.1 aminoacylation ribozyme variant] | 0.894 | 1.08 | 0.577 | 0.712 | 0.691 | 0.55 |
| AAGUUUGCUAUUAGUCGAAAG [Fam3.1 aminoacylation ribozyme variant] | 0.834 | 1.06 | 1.07 | 1.18 | 0.914 | 0.825 |
| AAGUUUGCUAUUAGUCGUAAG [Fam3.1 aminoacylation ribozyme variant] | 0.923 | 0.987 | 0.868 | 0.884 | 0.851 | 1.13 |
| AAGUUUGCUCAUAGGCGCAAG [Fam3.1 aminoacylation ribozyme variant] | 0.852 | 0.996 | 0.735 | 0.839 | 0.577 | 0.876 |
